In patent US20260242478A1 (published 2026):
Where no end group is shown, it is not given here.

B1: Phage-3213 (peptide)
peptide: AIAMCVPSWMCTGL
modifications: cysteine pairing not given here; also: fused to phage pIII, sequence not given here
notes: not shown: pIII filament protein of the bacteriophage
B2: Phage-3225 (peptide)
peptide: GEVLCRPIWMCNGF
notes: as for B1
B3: Phage-3223 (peptide)
peptide: PQWMCKPEWMCNGF
notes: as for B1
B4: Phage-3217 (peptide)
peptide: IELFCKPAWMCDGF
notes: as for B1
B5: Phage-3222 (peptide)
peptide: MELKCVPKWMCAGF
modifications: cysteine pairing not given here; also: fused to phage pIII, sequence not given here
notes: as for B1
B6: Phage-3218 (peptide)
peptide: DVHLCKPSWMCAGF
modifications: cysteine pairing not given here; also: fused to phage pIII, sequence not given here
notes: as for B1
B7: Phage-3221 (peptide)
peptide: LQILCKPQWMCEGL
notes: as for B1
B8: Phage-3224 (peptide)
peptide: ITALCKPAWMCDGF
notes: as for B1
B9: Phage-3215 (peptide)
peptide: LDLRCQPPWMCMGF
notes: as for B1
B10: Phage-3216 (peptide)
peptide: VEPLCVPSWMCQGI
notes: as for B1
B11: Phage-3220 (peptide)
peptide: IPRACIPAWMCQGF
notes: as for B1
B12: Phage-3214 (peptide)
peptide: MAPYCVPSWMCWGF
notes: as for B1
B13: Phage-3219 (peptide)
peptide: DQVMCKPIWMCEGF
notes: as for B1
B14: Phage-3237 (peptide)
peptide: EYHKCIPEWMCAGF
modifications: cysteine pairing not given here; also: fused to phage pIII, fusion site not given here
notes: also called Peptide-180 library clone
B15: Phage-3233 (peptide)
peptide: PYAMCEPAWMCSGF
modifications: cysteine pairing not given here; also: fused to phage pIII, fusion site not given here
notes: as for B14
B16: Phage-3236 (peptide)
peptide: PLPMCVPAWMCAGF
modifications: cysteine pairing not given here; also: fused to phage pIII, fusion site not given here
notes: as for B14
B17: Phage-3111 (peptide)
peptide: IEIMCMPRWMCDGF
notes: Clonal phage of the peptide-180 library; not shown: pIII filament protein of the bacteriophage, fused to the peptide
B18: Phage-3114 (peptide)
peptide: VPRYCVPQWMCAAF
notes: as for B17
B19: Phage-3113 (peptide)
peptide: NGVVCQPPWMCFGF
notes: as for B17
B20: Phage-3109 (peptide)
peptide: VEAMCKPWWMCEGL
notes: as for B17
B21: Phage-3112 (peptide)
peptide: EPQMCIPRWMCDGF
notes: as for B17
B22: Phage-3110 (peptide)
peptide: VVQLCRPSWMCQGF
notes: as for B17

target: T1, PSMA Fab (biotinylated (site not stated)); assay: clonal phage ELISA on biotinylated PSMA Fab captured on neutravidin; anti-M13 HRP detection
T1 construct: Biotinylated PSMA Fab captured on neutravidin coated plates in the phage ELISA; also called Anti-PSMA Fab; 006 PSMA Fab

Compared with B1, B2 is lower in “phage binding ELISA signal” value: 1.97 for the first, 1.95 for the second.

First: B3
Second: B4
The “phage binding ELISA signal” value of the first is lower: 1.96 for the first, 1.97 for the second.

B5 and B6 are the same in “phage binding ELISA signal” value: 1.96 for the first, 1.96 for the second.

B7 and B8 are the same in “phage binding ELISA signal” value: 1.96 for the first, 1.96 for the second.

B9 and B10 are the same in “phage binding ELISA signal” value: 1.97 for the first, 1.97 for the second.

Compared with B11, B12 is higher in “phage binding ELISA signal” value: 1.96 for the first, 1.97 for the second.

With B13 the “phage binding ELISA signal” value was 1.96.

target: T2, PSMA Fab (biotinylated (site not stated)); assay: clonal phage ELISA; biotinylated PSMA Fab on neutravidin plate, wells pre-incubated with PSMA antigen as competitor; anti-M13 HRP detection;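 further: crude clonal phage supernatants added to antigen-treated wells without a wash, incubated briefly, then bound phage read out via horse radish–conjugated anti-M13 antibody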
T2 construct: The panning ELISA names only 'biotinylated PSMA Fab' captured on neutravidin coated plates; also called Anti-PSMA Fab; 006 PSMA Fab

First: LGIYCVPEWMCQGF (also called Peptide-180 library clone) [Phage-3230]
Second: VTAYCVPPWMCAVF (also called Peptide-180 library clone) [Phage-3231]
The “Phage binding ELISA signal, Anti-PSMA Fab with PSMA antigen” value of the first is lower: 0.0818 for the first, 0.102 for the second.

First: VERLCMPEWMCLGF (also called Peptide-180 library clone) [Phage-3235]
Second: WEHRCTPEWMCTGF (also called Peptide-180 library clone) [Phage-3238]
The “Phage binding ELISA signal, Anti-PSMA Fab with PSMA antigen” value of the first is higher: 0.126 for the first, 0.0937 for the second.

Compared with VGHVCLPPWMCTGF (also called Peptide-180 library clone) [Phage-3228], B14 is higher in “Phage binding ELISA signal, Anti-PSMA Fab with PSMA antigen” value: 0.0697 for the first, 0.0924 for the second.

Compared with B15, LTVLCEPAWMCVGF (also called Peptide-180 library clone) [Phage-3226] is higher in “Phage binding ELISA signal, Anti-PSMA Fab with PSMA antigen” value: 0.0697 for the first, 0.0827 for the second.

First: PIVKCSPAWMCSGF (also called Peptide-180 library clone) [Phage-3227]
Second: B16
The “Phage binding ELISA signal, Anti-PSMA Fab with PSMA antigen” value of the first is lower: 0.0757 for the first, 0.133 for the second.

Going from IVKACKPEWMCVGF (also called Peptide-180 library clone) [Phage-3232] to ITPLCSPAWMCQGL (also called Peptide-180 library clone) [Phage-3229], the “Phage binding ELISA signal, Anti-PSMA Fab with PSMA antigen” value falls from 0.0754 to 0.055.

For DGIRCVPNWMCVGF (also called Peptide-180 library clone) [Phage-3234], the “Phage binding ELISA signal, Anti-PSMA Fab with PSMA antigen” value was 0.0969.

target: T1, PSMA Fab; assay: clonal phage ELISA on plate-bound PSMA Fab pre-incubated with PSMA antigen as competitor
Procedure: (§1) Clonal phage were harvested as crude supernatants and screened via standard ELISAs. […] Prior to the addition of clonal phage. wells were incubated with blocking buffer and PSMA antigen or blocking buffer alone. Without washing or aspirating, clonal phage supernatants were then added to the wells and incubated for a short time. Wells were then washed followed by detection of bound phage using a horse radish conjugated anti-M13 antibody.

Compared with B1, B2 is higher in “phage binding ELISA signal” value: 0.0711 for the first, 0.123 for the second.

Going from B3 to B4, the “phage binding ELISA signal” value rises from 0.0807 to 0.111.

Going from B5 to B6, the “phage binding ELISA signal” value rises from 0.0684 to 0.0706.

First: B7
Second: B8
The “phage binding ELISA signal” value of the first is lower: 0.0882 for the first, 0.109 for the second.

Going from B9 to B10, the “phage binding ELISA signal” value falls from 0.0778 to 0.076.

First: B11
Second: B12
The “phage binding ELISA signal” value of the first is lower: 0.101 for the first, 0.145 for the second.

B13 was tested, and the “phage binding ELISA signal” value was 0.0928.

target: T3, PSMA Fab; assay: clonal phage ELISA on biotinylated PSMA Fab captured on neutravidin plates, anti-M13 HRP detection;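 further: crude clonal phage supernatants tested, before phage were added, wells were pretreated with PSMA antigen in blocking buffer or with blocking buffer only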
T3 construct: In the phage ELISA the PSMA Fab was biotinylated and captured on neutravidin coated plates; also called Anti-PSMA Fab; 006 PSMA Fab
Procedure: as §1

First: VVIQCQPAWMCDGF [Phage-3296]
Second: EHYACKPEWMCAGF (cysteine pairing not given here; also: fused to pIII of bacteriophage) [Phage-3304]
The “Phage binding ELISA signal, Anti-PSMA Fab” value of the first is higher: 1.88 for the first, 1.87 for the second.

Compared with VDRFCEPIWMCIGF [Phage-3306], TEVMCRPLWMCAGF [Phage-3295] is higher in “Phage binding ELISA signal, Anti-PSMA Fab” value: 1.87 for the first, 1.89 for the second.

Going from VAVMCRPAWMCYGF [Phage-3297] to EMFRCTPEWMCAGL (cysteine pairing not given here; also: fused to pIII of bacteriophage) [Phage-3307], the “Phage binding ELISA signal, Anti-PSMA Fab” value falls from 1.88 to 1.87.

HSALCIPSWMCQGF [Phage-3305] and MLLQCKPSWMCAGF [Phage-3302] are the same in “Phage binding ELISA signal, Anti-PSMA Fab” value: 1.87 for the first, 1.87 for the second.

MPPVCIPRWMCEGF [Phage-3301] and VESMCKPAWMCIGF [Phage-3300] are the same in “Phage binding ELISA signal, Anti-PSMA Fab” value: 1.88 for the first, 1.88 for the second.

HDAMCKPAWMCAGF [Phage-3299] and ETFKCVPEWMCTGL [Phage-3298] are the same in “Phage binding ELISA signal, Anti-PSMA Fab” value: 1.88 for the first, 1.88 for the second.

GWPVCVPPWMCDGF [Phage-3303] was tested, and the “Phage binding ELISA signal, Anti-PSMA Fab” value was 1.87.

target: T2, PSMA Fab; assay: clonal phage ELISA; biotinylated PSMA Fab on neutravidin plate, blocking buffer alone; anti-M13 HRP detection;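 further: crude clonal phage supernatants added without washing to wells pretreated with blocking buffer with or without PSMA antigen, short incubation, then washed before detecting bound phage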
Procedure: as §1

LGIYCVPEWMCQGF (also called Peptide-180 library clone) [Phage-3230] and VTAYCVPPWMCAVF (also called Peptide-180 library clone) [Phage-3231] are the same in “Phage binding ELISA signal, Anti-PSMA Fab” value: 1.95 for the first, 1.95 for the second.

First: VERLCMPEWMCLGF (also called Peptide-180 library clone) [Phage-3235]
Second: WEHRCTPEWMCTGF (also called Peptide-180 library clone) [Phage-3238]
The “Phage binding ELISA signal, Anti-PSMA Fab” value of the first is higher: 1.95 for the first, 1.94 for the second.

Going from VGHVCLPPWMCTGF (also called Peptide-180 library clone) [Phage-3228] to B14, the “Phage binding ELISA signal, Anti-PSMA Fab” value falls from 1.95 to 1.94.

B15 and LTVLCEPAWMCVGF (also called Peptide-180 library clone) [Phage-3226] are the same in “Phage binding ELISA signal, Anti-PSMA Fab” value: 1.95 for the first, 1.95 for the second.

PIVKCSPAWMCSGF (also called Peptide-180 library clone) [Phage-3227] and B16 are the same in “Phage binding ELISA signal, Anti-PSMA Fab” value: 1.95 for the first, 1.95 for the second.

IVKACKPEWMCVGF (also called Peptide-180 library clone) [Phage-3232] and ITPLCSPAWMCQGL (also called Peptide-180 library clone) [Phage-3229] are the same in “Phage binding ELISA signal, Anti-PSMA Fab” value: 1.95 for the first, 1.95 for the second.

With DGIRCVPNWMCVGF (also called Peptide-180 library clone) [Phage-3234] the “Phage binding ELISA signal, Anti-PSMA Fab” value was 1.95.

target: T4, PSMA Fab (biotinylated (site not stated)); assay: clonal phage supernatant ELISA on PSMA Fab pre-incubated with PSMA antigen as competitor; anti-M13-HRP detection
T4 construct: Biotinylated PSMA Fab captured on neutravidin coated plates for the clonal phage ELISA; also called Anti-PSMA Fab; 006 PSMA Fab

Going from B17 to B18, the “Phage binding ELISA signal, Anti-PSMA Fab with PSMA antigen” value falls from 0.101 to 0.0864.

First: B19
Second: B20
The “Phage binding ELISA signal, Anti-PSMA Fab with PSMA antigen” value of the first is higher: 0.0794 for the first, 0.0719 for the second.

First: B21
Second: B22
The “Phage binding ELISA signal, Anti-PSMA Fab with PSMA antigen” value of the first is lower: 0.135 for the first, 0.281 for the second.

target: T4, PSMA Fab; assay: clonal phage supernatant ELISA on biotinylated PSMA Fab captured on neutravidin; anti-M13-HRP detection
Procedure: as §1

B17 and B18 are the same in “Phage binding ELISA signal, Anti-PSMA Fab” value: 2.08 for the first, 2.08 for the second.

B19 and B20 are the same in “Phage binding ELISA signal, Anti-PSMA Fab” value: 2.08 for the first, 2.08 for the second.

B21 and B22 are the same in “Phage binding ELISA signal, Anti-PSMA Fab” value: 2.08 for the first, 2.08 for the second.
